# “And” between values parts separate entries of the source, which are not always exact repeats. Identical values can stand only once.
# Assays:
# [1] = target: T1, YbATP-grasp (Yersinia bercovieri, UniProt A0ABP2E091); experiment: differential scanning fluorimetry (thermofluor); format: binding; conditions: strong destabilization in presence of ATP; shift size not given
# T1 construct: gene yberc0001_40; N-terminally His-tagged (pQLinkH), E. coli ER2566 host; 780 kDa, 14-mer by sedimentation equilibrium; gene from the four-gene Anbu operon (ATP-grasp, alphaE, transglutaminase, Anbu)
# T1 sequence (A0ABP2E091 1-478): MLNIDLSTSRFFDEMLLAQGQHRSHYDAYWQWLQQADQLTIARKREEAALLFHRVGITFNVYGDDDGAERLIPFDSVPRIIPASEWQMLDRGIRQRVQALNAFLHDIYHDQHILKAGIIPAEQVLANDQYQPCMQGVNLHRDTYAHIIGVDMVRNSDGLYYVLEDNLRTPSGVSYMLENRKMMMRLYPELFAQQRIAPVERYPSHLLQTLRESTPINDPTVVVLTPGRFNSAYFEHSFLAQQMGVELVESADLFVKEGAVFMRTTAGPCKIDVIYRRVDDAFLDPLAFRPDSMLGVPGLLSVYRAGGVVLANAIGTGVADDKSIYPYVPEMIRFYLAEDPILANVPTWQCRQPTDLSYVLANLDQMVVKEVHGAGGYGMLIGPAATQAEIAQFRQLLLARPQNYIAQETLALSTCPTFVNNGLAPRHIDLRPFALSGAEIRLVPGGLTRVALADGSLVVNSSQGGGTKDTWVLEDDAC
# [2] = target: T1, YbATP-grasp; experiment: […]-orthophosphate release, thin-layer chromatography and autoradiography; format: biochemical; conditions: 50 mM Tris pH 7.5, 150 mM KCl, 5 mM MgCl2, 1 mM ATP, RT; labelled compound
# [3] = target: ATP-grasp protein encoded in the Y. bercovieri Anbu operon, N-terminally His-tagged (Yersinia bercovieri); experiment: AUC; sedimentation equilibrium of YbATP-grasp at 4000, 7000 and 9000 rpm, buffer D in the reference sector, global fit (SEDPHAT)
# [4] = target: Yersinia bercovieri Anbu (ancestral beta subunit), V14A/G107H variant (Yersinia bercovieri); experiment: AUC; sedimentation velocity, 40,000 rpm, 20 °C, buffer D, continuous c(s) distribution model (SEDFIT)
# [5] = target: Yersinia bercovieri Anbu (ancestral beta subunit), V14A/G107H variant (Yersinia bercovieri); experiment: SEC; Superose 6 30/100 column, 0.5 ml/min, buffer D (50 mM Tris pH 7.5, 300 NaCl, 1 mM EDTA); calibrated with BioRad standards, yeast 20S and EcHslV
# [6] = target: Yersinia bercovieri Anbu (ancestral beta subunit), V14A/G107H variant (Yersinia bercovieri); experiment: AUC; sedimentation equilibrium of YbAnbu at 4000, 7000 and 9000 rpm, buffer B in the reference sector, global fit (SEDPHAT)
# [7] = target: Yersinia bercovieri Anbu (ancestral beta subunit), V14A/G107H variant (Yersinia bercovieri); experiment: crystal structure; sitting drop vapor diffusion, 100 mM BIS-TRIS propane/HCl pH 6.7-7.1, 200 mM Na2SO4, 18% PEG 3350, 7.5% ethylene glycol; space group P21, 2.5 Å, two 14-mers in the asymmetric unit
compound,measurement,setting,value
Nc1ncnc2c1ncn2[C@@H]1O[C@H](COP(=O)(O)OP(=O)(O)OP(=O)(O)O)[C@@H](O)[C@H]1O [ATP],differential scanning fluorimetry (thermofluor),[1],"indicated strong destabilization of YbATP-grasp in the presence of ATP, but not ADP"
same,"32P-orthophosphate release, thin-layer chromatography and autoradiography",[2],The YbATP-grasp protein led to robust production of orthophosphate
"ATP-grasp protein encoded in the Y. bercovieri Anbu operon, N-terminally His-tagged (natural protein)",stoichiometry N,[3],14
"Yersinia bercovieri Anbu (ancestral beta subunit), V14A/G107H variant (natural protein)",stoichiometry N,[4],12
same,stoichiometry N,[5],9 and 5 and 14
same,stoichiometry N,[6],14
same,stoichiometry N,[7],14
